{
  "source": "patent US20080261241A1",
  "about": "“Targeted ubiquitination of proteins and screening methods using a new class of ubiquitin ligase proteins” (INSTITUT PASTEUR, priority 2007, published 2008)",
  "molecules": {"B1": {"name": "GST-IpaH9.8 (protein)", "chain": "MLPINNNFSLPQNSFYNTISGTYADYFSAWDKWEKQALPGEERDEAVSRLKECLINNSDELRLDRLNLSSLPDNLPAQITLLNVSYNQLTNLPELPVTLKKLYSASNKLSELPVLPPALESLQVQHNELENLPALPDSLLTMNISYNEIVSLPSLPQALKNLRATRNFLTELPAFSEGNNPVVREYFFDRNQISHIPESILNLRNECSIHISDNPLSSHALQALQRLTSSPDYHGPRIYFSMSDGQQNTLHRPLADAVTAWFPENKQSDVSQIWHAFEHEEHANTFSAFLDRLSDTVSARNTSGFREQVAAWLEKLSASAELRQQSFAVAADATESCEDRVALTWNNLRKTLLVHQASEGLFDNDTGALLSLGREMFRLEILEDIARDKVRTLHFVDEIEVYLAFQTMLAEKLQLSTAVKEMRFYGVSGVTANDLRTAEAMVRSREENEFTDWFSLWGPWHAVLKRTEADRWAQAEEQKYEMLENEYPQRVADRLKASGLSGDADAEREAGAQVMRETEQQIYRQLTDEVLALRLSENGSQLHHS"}, "B2": {"name": "IpaH7.8: another IpaH family member from Shigella (protein, UniProt P18014 1-565, looked up)", "E3 ubiquitin-protein ligase …": "MFSVNNTHSSVSCSPSINSNSTSNEHYLRILTEWEKNSSPGEERGIAFNRLSQCFQNQEAVLNLSDLNLTSLPELPKHISALIVENNKLTSLPKLPAFLKELNADNNRLSVIPELPESLTTLSVRSNQLENLPVLPNHLTSLFVENNRLYNLPALPEKLKFLHVYYNRLTTLPDLPDKLEILCAQRNNLVTFPQFSDRNNIRQKEYYFHFNQITTLPESFSQLDSSYRINISGNPLSTRVLQSLQRLTSSPDYHGPQIYFSMSDGQQNTLHRPLADAVTAWFPENKQSDVSQIWHAFEHEEHANTFSAFLDRLSDTVSARNTSGFREQVAAWLEKLSASAELRQQSFAVAADATESCEDRVALTWNNLRKTLLVHQASEGLFDNDTGALLSLGREMFRLEILEDIARDKVRTLHFVDEIEVYLAFQTMLAEKLQLSTAVKEMRFYGVSGVTANDLRTAEAMVRSREENEFTDWFSLWGPWHAVLKRTEADRWAQAEEQKYEMLENEYSQRVADRLKASGLSGDADAEREAGAQVMRETEQQIYRQLTDEVLALRLSENGSRLHHS"}, "B3": {"name": "GST-SspH1 (protein)", "chain": "EFMLPINNNFSLPQNSFYNTISGTYADYFSAWDKWEKQALPGEERDEAVSRLKECLINNSDELRLDRLNLSSLPDNLPAQITLLNVSYNQLTNLPELPVTLKKLYSASNKLSELPVLPPALESLQVQHNELENLPALPDSLLTMNISYNEIVSLPSLPQALKNLRATRNFLTELPAFSEGNNPVVREYFFDRNQISHIPESILNLRNECSIHISDNPLSSHALQALQRLTSSPDYHGPRIYFSMSDGQQNTLHRPLADAVTAWFPENKQSDVSQIWHAFEHEEHANTFSAFLDRLSDTVSARNTSGFREQVAAWLEKLSASAELRQQSFAVAADATESCEDRVALTWNNLRKTLLVHQASEGLFDNDTGALLSLGREMFRLEILEDIARDKVRTLHFVDEIEVYLAFQTMLAEKLQLSTAVKEMRFYGVSGVTANDLRTAEAMVRSREENEFTDWFSLWGPWHAVLKRTEADRWAQAEEQKYEMLENEYPQRVADRLKASGLSGDADAEREAGAQVMRETEQQIYRQLTDEVLALRLFENGSQLHHS"}},
  "key": {"[1]": {"target": "His-tagged UbcH5B, P62837", "sequence (P62837 whole entry, looked up)": "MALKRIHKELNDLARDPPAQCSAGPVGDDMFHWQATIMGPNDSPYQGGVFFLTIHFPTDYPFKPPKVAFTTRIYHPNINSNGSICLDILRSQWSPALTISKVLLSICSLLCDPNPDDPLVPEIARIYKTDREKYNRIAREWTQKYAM"}, "sst2Δ cells": {"system": "sst2Δ cells", "test": "Growth of sst2Δ yeast in the presence of pheromone", "format": "cell-based, Saccharomyces cerevisiae", "settings": "galactose-induced production, α-factor plates"}},
  "data": [
    {"molecule": "B1", "values": [
      {"measurement": "removal of ubiquitin from ubiquitinated UbcH5B, immunoblot with streptavidin-peroxidase", "setting": "[1]", "value": "after ubiquitination of UbcH5B, addition of GST-IpaH9.8 to the reaction mixture promoted the removal of ubiquitin from UbcH5B"}
    ]},
    {"molecule": "B2", "values": [
      {"measurement": "growth of sst2Δ cells in the presence of pheromone", "setting": "sst2Δ cells", "value": "rescued the pheromone-induced growth arrest of sst2Δ cells"}
    ]},
    {"molecule": "B3", "values": [
      {"measurement": "removal of ubiquitin from ubiquitinated UbcH5B", "setting": "[1]", "value": "SspH1 was endowed with the activities (i) to remove ubiquitin from ubiquitinated UbcH5B"}
    ]}
  ]
}
